Biological target: T1, MCT2 tagged at its N-terminus with CFP (rat, UniProt Q63344 1-489)
T1 construct: Monocarboxylate transporter MCT2; also called MCT2-ECFP (N-terminal); MCT2-CFP; source: COS-7, transiently transfected (Fugene 6), in live cells; not shown: ECFP, N-terminal, kept
T1 sequence (looked up): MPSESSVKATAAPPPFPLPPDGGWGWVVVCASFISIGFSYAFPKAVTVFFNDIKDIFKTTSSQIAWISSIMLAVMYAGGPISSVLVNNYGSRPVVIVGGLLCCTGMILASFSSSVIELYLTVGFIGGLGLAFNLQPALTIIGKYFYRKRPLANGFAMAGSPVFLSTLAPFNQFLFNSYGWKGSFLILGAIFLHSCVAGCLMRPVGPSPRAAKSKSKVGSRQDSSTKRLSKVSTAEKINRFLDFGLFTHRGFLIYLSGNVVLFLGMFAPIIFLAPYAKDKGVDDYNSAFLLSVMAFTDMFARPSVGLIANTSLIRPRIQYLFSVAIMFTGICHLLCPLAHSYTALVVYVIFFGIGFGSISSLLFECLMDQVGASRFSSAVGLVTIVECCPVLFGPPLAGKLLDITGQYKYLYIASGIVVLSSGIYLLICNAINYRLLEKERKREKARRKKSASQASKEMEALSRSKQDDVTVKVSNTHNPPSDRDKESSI
Test: FRET or BRET; live COS-7 cells co-transfected with MCT2-ECFP (N-terminal) and np55- or np65-EYFP (C-terminal), 48 h after transfection; 37°C, imaging buffer pH 7.4; ratio of emission at 480 nm to 530 nm on excitation at 430 nm (MCT2-CFP alone 1.33±0.016)
Conditions: partners not purified

480:530 nm fluorescence emission ratio (FRET): 0.792
B1: np65 C-terminally labelled with YFP (natural protein)
chain: not shown
notes: Neuroplastin np65, the form with 3 Ig domains; also called np65-EYFP (C-terminal); np65-YFP; source: COS-7, transiently transfected (Fugene 6), in live cells; not shown: EYFP, C-terminal, kept

Source: paper PMC3832594, “The Neuroplastin Adhesion Molecules Are Accessory Proteins That Chaperone the Monocarboxylate Transporter MCT2 to the Neuronal Cell Surface” (PLoS ONE, 2013)
